Here are results for one molecule from patent US20120028912A1.

The test has as its target lysine-acetylated histone H4 peptide SGRGKGG-AcK-GLGK (Lys8 acetylated). As to the kind of experiment: NMR titration, 15N-HSQC chemical shift changes against ligand concentration.

B1: bromodomain of P/CAF (residues 719-832 of SEQ ID NO:2), Q92831 719-832 (protein)
chain: SKEPRDPDQLYSTLKSILQQVKSHQSAWPFMEPVKRTEAPGYYEVIRFPMDLKTMSERLKNRYYVSKKLFMADLQRVFTNCKEYNAAESEYYKCANILEKFFFSKIKEAGLIDK
On to B1, for which the Kd turned out to be 346 µM.

In general, Kd refers to the concentration at which binding is half-saturated.
